Paper PMC8497620, “Structure and inhibition of Cryptococcus neoformans sterylglucosidase to develop antifungal agents” (Nature Communications, 2021)
Several values for one entry are separate records, joined by “and”; a condition that tells them apart may be missing. Equal values may be shown once.

Columns and labels:
C. neoformans Sgl1 [1] = target: T1, C. neoformans Sgl1 (Cryptococcus neoformans var. grubii, UniProt J9W473); assay: Kinetic evaluation of erg-glc and C6-NBD-GlcCer hydrolysis by Sgl1 (Triton X-100 mixed micelles, HPLC); assay type: biochemical
Method: A 50 μL volume of Cn Sgl1 wild type and 50 μL of mixed micelles of lipid and Triton X-100 in 50 mM Bis-Tris buffer with 150 mM NaCl, 5 mM βME, and 5 mM DTT were mixed and incubated at 37 °C for 10 min (erg-glc, Avanti Polar Lipids) and 1 h (C6-NBD-glcCer, Matreya). For the substrate erg-glc the amount of protein was 5 ng. 150 ng protein was used for reactions with C6-NBD-GlcCer. After the incubation period, each reaction was quenched with a 2:1 chloroform:methanol solution and the organic phase was collected and dried. Then, the lipid content was resuspended in 50 μL methanol and applied to HPLC (Agilent Technologies). Total erg-glc and ergosterol was detected using absorbance at 282 nm on a C-8 column with a flow rate of 0.5 ml/min in methanol/water 90:10 ratio buffered with 1 mM ammonium formate and 0.2% formic acid. A 85:15 ratio of the same eluent was used for C6-NBD-GlcCer and C6-NBD-ceramide monitoring the fluorescence at 470/530 nm excitation/emission. The total area of product was normalized by the total area of its respective substrate.

C. neoformans Sgl1 [2] = target: T1, C. neoformans Sgl1; assay: Sgl1 inhibition with res-glp substrate (HTS, single-compound dose-response); assay type: biochemical; details: res-glp as substrate (100 µM), primary screen; read-out: IC50 against Sgl1
Method: Resorufin-3β-D-glucopyranoside (res-glp, Sigma-Aldrich) enzyme kinetic assays were performed according to methods described by Urban et al.[16] with modifications. Reaction buffer contained 50 mM citric acid, 176 mM K2HPO4, pH 6, 0.01% Tween-20, and 10 mM sodium taurocholate. The reactions were carried out in black 96-well plates using 20 ng of enzyme with 100 μM res-glp substrate. In all, 10 μL/well of res-glp substrate was added to each well and the reaction was initiated by adding 20 μL enzyme (20 ng). After incubation at 37 °C for 30–40 min, the fluorescence was read at an excitation of 570 (±10) nm and an emission of 610 (±10) nm on a VersaMax™ Microplate Reader from Molecular Devices. A standard curve was prepared with serial dilutions of the free fluorophore, resorufin, in the same volume of assay buffer.
A ChemBridge DIVERSet-CL library (San Diego, CA) containing 50,000 compounds was screened to identify small molecules that inhibit C. neoformans Sgl1. The library was prepared in a 96-well plate format containing a cocktail of 10 compounds per well at 1 mM each in 100% DMSO. The cocktail plates were first diluted to 100 μM each (1:10 dilution in Dulbecco’s phosphate-buffered saline, DPBS) resulting in 10% DMSO. In order to screen the compound cocktails at […] in 1% DMSO in a final reaction volume of 30 μL an aliquot of 3 μL was added to 17 μL of buffer containing 20 ng of enzyme and the reaction was started adding 10 μL of 100 μM res-glp. A negative control without enzyme and positive controls with and without DMSO were prepared. The plates were incubated at 37 °C for 40 min.
The Z′-factor was used for the assessment of the efficiency of the HTS assay for each individual plate. Values greater than 0.5 has been considered as an indicator of an excellent screening assay quality.

C. neoformans Sgl1 [3] = target: T1, C. neoformans Sgl1; assay: H/D exchange mass spectrometry mapping of disordered regions; details: H/D exchange MS of C. neoformans Sgl1; per peptide (amino acids Start-End, Sequence); Fig S2a
Method: HDX-MS reactions were performed in a similar manner as is outlined in previous publications. HDX reactions were conducted in a final reaction volume of 50 µL with a final Sgl1 concentration of 0.6 µM (30 pmol). Exchange was carried out in triplicate for a single time point (3 s at 4 °C). Hydrogen deuterium exchange was initiated by the addition of 48 µL of D2O buffer (100 mM NaCl (20 mM pH 6.0 Bis-Tris), 90.5% D2O (V/V) to 1 µL of protein and 1 µL of H2O. Exchange was terminated by the addition of ice-cold acidic quench buffer, resulting in a final concentration of 0.6 M guanidine-HCl and 0.9% FA post quench. Samples were immediately frozen in liquid nitrogen and stored at −80 °C. Fully deuterated samples were generated by first denaturing the protein in 2 M guanidine for 5 min at 20 °C. Following denaturing, 48 µL of D2O buffer was added to the denatured protein and allowed to incubate for 5 min at 20 °C before quenching. Samples were flash frozen and stored at −80 °C until injection onto the ultra-performance liquid chromatography (UPLC) system for proteolytic cleavage, peptide separation, and injection onto a QTOF for mass analysis.
Protein sample was rapidly thawed and injected onto a UPLC system kept in a cold box at 2 °C. The protein was run over two immobilized pepsin columns (Applied Biosystems; Porosyme 2-3131-00) and the peptides were collected onto a VanGuard Precolumn trap (Waters). The trap was eluted in line with an ACQUITY 1.7 μm particle, 100 × 1 mm^2 C18 UPLC column (Waters), using a gradient of 5–36% B (Buffer A 0.1% formic acid, Buffer B 100% acetonitrile) over 16 min. MS experiments were performed on an Impact QTOF (Bruker) and peptide identification was done by running tandem MS (MS/MS) experiments run in data-dependent acquisition mode. The resulting MS/MS dataset was analyzed using PEAKS7 (PEAKS) and a false discovery rate was set at 1% using a database of purified proteins and known contaminants. HDExaminer Software (Sierra Analytics) was used to automatically calculate the level of deuterium incorporation into each peptide. All peptides were manually inspected for correct charge state and presence of overlapping peptides. Deuteration levels were calculated using the centroid of the experimental isotope clusters, with correction for back exchange generated using the fully deuterated sample. The mass spectrometry proteomics data have been deposited to the ProteomeXchange Consortium via the PRIDE partner repository[31] with the dataset identifier PXD024981.

T1 sequence (J9W473 entry or part of it): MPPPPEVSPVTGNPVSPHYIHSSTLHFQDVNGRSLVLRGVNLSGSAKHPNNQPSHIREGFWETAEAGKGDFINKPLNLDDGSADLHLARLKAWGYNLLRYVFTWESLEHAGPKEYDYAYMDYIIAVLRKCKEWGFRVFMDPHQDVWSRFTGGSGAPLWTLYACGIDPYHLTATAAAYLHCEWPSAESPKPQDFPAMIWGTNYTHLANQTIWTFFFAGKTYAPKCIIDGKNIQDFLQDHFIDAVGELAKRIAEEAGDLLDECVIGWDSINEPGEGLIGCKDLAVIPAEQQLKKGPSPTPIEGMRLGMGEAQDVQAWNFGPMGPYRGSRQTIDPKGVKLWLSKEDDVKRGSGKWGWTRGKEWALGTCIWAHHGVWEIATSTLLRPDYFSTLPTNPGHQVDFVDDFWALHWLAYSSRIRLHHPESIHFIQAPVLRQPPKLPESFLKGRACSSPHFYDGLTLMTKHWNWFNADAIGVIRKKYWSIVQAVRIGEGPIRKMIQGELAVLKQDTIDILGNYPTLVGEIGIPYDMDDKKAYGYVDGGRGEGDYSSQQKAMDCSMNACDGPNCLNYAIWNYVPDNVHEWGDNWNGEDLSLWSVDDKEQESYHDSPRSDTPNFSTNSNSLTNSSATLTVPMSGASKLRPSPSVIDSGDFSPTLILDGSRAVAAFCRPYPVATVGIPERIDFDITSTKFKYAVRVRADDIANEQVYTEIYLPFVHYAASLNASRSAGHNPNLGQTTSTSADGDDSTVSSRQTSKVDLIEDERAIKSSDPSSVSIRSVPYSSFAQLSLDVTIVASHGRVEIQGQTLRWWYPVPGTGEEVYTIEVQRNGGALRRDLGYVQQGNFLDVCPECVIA

| Molecule | % Deuterium incorporation, Average (C. neoformans Sgl1 [3]) | other results |
| --- | --- | --- |
| CCCCCCCCCCCCCC=CC(O)C(COC1OC(CO)C(O)C(O)C1O)NC(=O)CCCCCNc1ccc([N+](=O)[O-])c2nonc12 (stereo not drawn) [C6-NBD-GlcCer, C6-NBD-glucosylceramide] | – | Turnover (mol C6-NBD-Ceramide / sec/ mol enzyme) (C. neoformans Sgl1 [1]; 0.3 mol% C6-NBD-GlcCer): 0.0009 mol C6-NBD-Ceramide / sec/ mol enzyme and 0.0010 mol C6-NBD-Ceramide / sec/ mol enzyme; Turnover (mol C6-NBD-Ceramide / sec/ mol enzyme) (C. neoformans Sgl1 [1]; 0.7 mol% C6-NBD-GlcCer): 0.0024 mol C6-NBD-Ceramide / sec/ mol enzyme and 0.0025 mol C6-NBD-Ceramide / sec/ mol enzyme; Turnover (mol C6-NBD-Ceramide / sec/ mol enzyme) (C. neoformans Sgl1 [1]; 1.0 mol% C6-NBD-GlcCer): 0.0039 mol C6-NBD-Ceramide / sec/ mol enzyme and 0.0038 mol C6-NBD-Ceramide / sec/ mol enzyme; Turnover (mol C6-NBD-Ceramide / sec/ mol enzyme) (C. neoformans Sgl1 [1]; 1.5 mol% C6-NBD-GlcCer): 0.0051 mol C6-NBD-Ceramide / sec/ mol enzyme; Turnover (mol C6-NBD-Ceramide / sec/ mol enzyme) (C. neoformans Sgl1 [1]; 2.0 mol% C6-NBD-GlcCer): 0.0066 mol C6-NBD-Ceramide / sec/ mol enzyme and 0.0051 mol C6-NBD-Ceramide / sec/ mol enzyme; Turnover (mol C6-NBD-Ceramide / sec/ mol enzyme) (C. neoformans Sgl1 [1]; 2.5 mol% C6-NBD-GlcCer): 0.0073 mol C6-NBD-Ceramide / sec/ mol enzyme and 0.0067 mol C6-NBD-Ceramide / sec/ mol enzyme; Turnover (mol C6-NBD-Ceramide / sec/ mol enzyme) (C. neoformans Sgl1 [1]; 3.0 mol% C6-NBD-GlcCer): 0.0085 mol C6-NBD-Ceramide / sec/ mol enzyme and 0.0080 mol C6-NBD-Ceramide / sec/ mol enzyme; Turnover (mol C6-NBD-Ceramide / sec/ mol enzyme) (C. neoformans Sgl1 [1]; 3.5 mol% C6-NBD-GlcCer): 0.0076 mol C6-NBD-Ceramide / sec/ mol enzyme and 0.0074 mol C6-NBD-Ceramide / sec/ mol enzyme; Turnover (mol C6-NBD-Ceramide / sec/ mol enzyme) (C. neoformans Sgl1 [1]; 4.0 mol% C6-NBD-GlcCer): 0.0074 mol C6-NBD-Ceramide / sec/ mol enzyme and 0.0082 mol C6-NBD-Ceramide / sec/ mol enzyme; Turnover (mol C6-NBD-Ceramide / sec/ mol enzyme) (C. neoformans Sgl1 [1]; 4.5 mol% C6-NBD-GlcCer): 0.0064 mol C6-NBD-Ceramide / sec/ mol enzyme and 0.0070 mol C6-NBD-Ceramide / sec/ mol enzyme; Turnover (mol C6-NBD-Ceramide / sec/ mol enzyme) (C. neoformans Sgl1 [1]; 5.0 mol% C6-NBD-GlcCer): 0.0075 mol C6-NBD-Ceramide / sec/ mol enzyme and 0.0072 mol C6-NBD-Ceramide / sec/ mol enzyme; Km, Michaelis-Menten best-fit value (C. neoformans Sgl1 [1]; source data Fig 1d): 1.734 mol%; Vmax, Michaelis-Menten best-fit value, Turnover (C. neoformans Sgl1 [1]; source data Fig 1d): 0.01082 s⁻¹; KM (C. neoformans Sgl1 [1]; substrate of Sgl1, Triton X-100 mixed micelles, 37 °C): 1.73 ± 0.37 mol% |
| CC(C)Oc1cccc(C(=O)C2CCCN(C3CCSCC3)C2)c1 (stereo not drawn) [Hit 3] | – | IC50 (C. neoformans Sgl1 [2]): 4 µM |
| O=C(c1ccc(-c2ccccc2)c(F)c1)C1CCCN(C2CCSCC2)C1 (stereo not drawn) [Hit 2] | – | IC50 (C. neoformans Sgl1 [2]): 4 µM |
| COc1cc(CNCc2cc(C)cc3c(C)c(C)[nH]c23)cc2c1OCO2 [Hit 12] | – | IC50 (C. neoformans Sgl1 [2]): 2 µM |
| CN(C)CCN(Cc1ccsc1)Cc1ccc2nonc2c1 [Hit 11] | – | IC50 (C. neoformans Sgl1 [2]): 4 µM |
| CCC(Sc1nc2ccccc2o1)C(=O)N1CCc2[nH]cnc2C1 (stereo not drawn) [Hit 8] | – | IC50 (C. neoformans Sgl1 [2]): 4 µM |
| Cc1cc(NCc2ccc3[nH]c(C)c(C)c3c2)nc(N)n1 [Hit 4] | – | IC50 (C. neoformans Sgl1 [2]): 4 µM |
| WSVDDKEQES | 70.6% | – |
| VGEIGIPYDMD | 24.9% | – |
| RWWYPVPGTGEEV | 29.8% | – |
| WAHHGVWE | 1.5% | – |
| MTKHWNWFNA | 29.9% | – |
| YAIWNYVPDNVHE | 15.0% | – |
| VIGWDSINEPGEGLIGCKDL | 5.1% | – |
| YACGIDPYHLTATA | 18.2% | – |
| IYLPFVHYAASL | 21.4% | – |
| KQDTIDILGNYPTL | 22.4% | – |
| MRLGMGEAQDVQAWNFGPMGPYRGSRQTIDPKGVKL | 19.3% | – |

| Molecule | % Deuterium incorporation, Average (C. neoformans Sgl1 [3]) | other results |
| --- | --- | --- |
| LVLRGVN | 5.8% | – |
| DITSTKFKYAVRVRADDIANE | 9.0% | – |
| DTIDILGNYPTL | 14.2% | – |
| LVLRGVNLSGSAKHPNNQPSH | 28.6% | – |
| STVSSRQTSKVDL | 98.6% | – |
| AKRIAEE | 1.8% | – |
| YTHLANQTIWTF | 3.6% | – |
| AVIPAEQQLKKGPSPTPIEG | 30.1% | – |
| WSVDDKEQESYHDSPRSDTPNF | 83.4% | – |
| VTIVASHGRVEIQGQTLRWWYPVPGTGEE | 22.0% | – |
| PVLRQPPKLPES | 47.4% | – |
| RAIKSSDPSSV | 101.5% | – |
| DERAIKSSDPSS | 103.7% | – |
| VIGWDSINEPGEGLIG | 3.9% | – |
| STLPTNPGHQVD | 53.3% | – |
| DDKKAYGYVDGGRGEGDYSSQQKAMD | 28.0% | – |
| ASKLRPSPSVIDSGDFSPTL | 47.3% | – |
